From the supplement of paper PMC10567573

B1: LOC100129726 (parent)
chain: AKAADSPTRNDLESGLGHFSLRVH

Variants of: B1
Assay: protein stability index of a GFP-peptide fusion (GPS, HEK-293T) (PSI 1-6); higher = more stable
Details: c terminus: a fixed tail appended
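Note: lentivirally expressed fusions sorted by FACS into six bins by GFP to DsRed ratio, PSI derived from sequencing read proportions per bin multiplied by bin number.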

Variant | protein stability index
H24S | 3.6
H24C | 2.49
H24Q | 3.53
H24G | 2.64
H24I | 1.9
H24N | 4.15
H24K | 3.92
H24L | 2.59
H24P | 3.73
H24D | 3.63
H24R | 2.79
H24A | 2.92
H24M | 2.25
H24E | 3.75
H24F | 2.32
L21D | 5.01
L21T | 4.08
L21M | 3.6
L21A | 4.25
L21E | 4.38
L21K | 3.5
L21Q | 4
L21P | 4.25
L21C | 4.2

Variant | protein stability index
L21Y | 3.06
L21R | 2.98
L21N | 4.3
L21S | 4.39
L21H | 3.55
L21G | 4.79
L21W | 3.45
L21F | 2.38
L21V | 3.84
L21I | 2.33
L16M | 3.26
L16K | 3.89
L16S | 3.77
L16N | 3.67
L16P | 3.12
L16G | 3.58
L16W | 2.74
L16H | 3.44
L16Q | 3.28
L16R | 3.78
L16F | 2.57
L16V | 2.38
L16T | 3.8
L16Y | 2.84

Variant | protein stability index
L16A | 3.97
L16I | 3.71
L16D | 3.82
L16E | 4.23
R22I | 2.61
R22A | 3.47
R22M | 2.61
R22P | 4
R22K | 3.59
R22H | 3.25
R22C | 2.27
R22W | 2.4
R22L | 2.7
R22Y | 2.31
R22S | 2.98
R22N | 3.62
R22V | 2.71
R22D | 4.28
R22Q | 2.73
R22F | 2.43
R22E | 3.92
R22T | 2.8
R22G | 3.5
F19G | 4.32

Variant | protein stability index
F19A | 3.95
F19L | 3.31
F19E | 4.6
F19Q | 4.33
F19K | 4.63
F19R | 4.28
F19D | 4.6
F19T | 4.66
F19Y | 3.16
F19P | 4.33
F19W | 2.76
F19S | 4.61
F19V | 3.58
F19N | 4.24
F19M | 3.69
F19H | 3.67
G17F | 2.08
G17A | 2.84
G17M | 2.27
G17P | 3.06
G17N | 3.18
G17V | 3.13
G17E | 3.58
G17K | 2.89

Variant | protein stability index
G17R | 2.89
G17S | 2.84
G17T | 2.56
G17W | 2.96
G17Y | 2.37
G17C | 2.85
G17I | 2.28
G17H | 2.57
G17L | 1.65
G17D | 3.82
H18S | 3.73
H18V | 2.73
H18M | 2.29
H18D | 4.08
H18L | 2.38
H18G | 3.84
H18W | 1.59
H18Q | 3.44
H18K | 3.15
H18A | 3.25
H18T | 3.05
H18R | 3.08
H18E | 3.45
H18F | 2.1

Variant | protein stability index
H18C | 3.2
H18P | 3.04
H18Y | 2.66
H18I | 3.13
H18N | 3.53
S20A | 3.29
S20T | 3.1
S20Y | 1.58
S20L | 2.09
S20N | 3.45
S20H | 3.35
S20F | 2.05
S20E | 3.72
S20C | 2.45
S20R | 2.19
S20V | 2.21
S20W | 2.25
S20Q | 3.17
S20M | 2.87
S20K | 3.4
S20P | 3.81
S20G | 3.11
S20D | 3.46
S20I | 1.48

Variant | protein stability index
G15V | 2.48
G15T | 2.67
G15W | 1.57
G15Y | 2.4
V23F | 2.14
V23H | 3.55
V23P | 4.13
V23Y | 2.61
V23C | 3.45
V23K | 4.43
V23S | 3.48
V23Q | 3.58
V23R | 4.03
V23G | 4.16
V23A | 3.67
V23E | 4.69
V23W | 2.14
V23M | 3.29
V23I | 2.42
V23L | 2.88
V23N | 3.43
V23D | 4.68
V23T | 3.49
